In the supplement of paper PMC9170038:

Test system: K4 kissing-loop RNA reporter
Test: apparent KD of K4 kissing-loop reporter; higher = weaker reporter binding
Conditions: Eterna round: R107
Method: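 RNA-MaP round R107: designed RNA switches with theophylline, tryptophan, arginine or FMN aptamers are transcribed on-chip within common flanks. They are titrated with a labelled K4 kissing-loop RNA reporter in RNA-MaP buffer (100 mM Tris pH 7.5, 80 mM KCl, 4 mM MgCl2), without ligand or with the indicated ligand. Median apparent KD per design.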

[1] = input ligand: theophylline 20 uM
[2] = input ligand: tryptophan 2.4 mM
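Note: bound reporter read as fluorescence of individual clusters on recovered sequencing chips by microscopy, with normalized cluster intensities fitted with a binding model.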

| Sequence | apparent KD of K4 kissing-loop reporter (input ligand: FMN 200 uM) | apparent KD of K4 kissing-loop reporter (input ligand: arginine 13.2 mM) | apparent KD of K4 kissing-loop reporter (input ligand: none) | apparent KD of K4 kissing-loop reporter [1] | apparent KD of K4 kissing-loop reporter [2] |
| --- | --- | --- | --- | --- | --- |
| UGUCAUUGGUCUGAUACCAGCUUGAUCGGAAACGAUCUGCUGGAGUGAUGUUCCAAGUAAAGCCCUUGGCAGCAGACCGAUGACU [TheoBS 8 #SwitchBubble #StaticStem] | 129 nM | 59.8 nM | 103 nM | 125 nM | 102 nM |
| GCUAUGGUAGGAAGGAGCGCUUGCUCGGUCAUAUGAGUGAUGUUCGAGACCGAGCAUUUAUAGCAGGUAGGUCGCCUACUAUAGC [Arginine B K4 8] | 253 nM | 223 nM | 192 nM | 200 nM | 198 nM |
| GCCAGCAGUACUGAUACCAGACUGCAUGUAGUGAUGUUGCAUAAGGGCAUAGAUGUCUCAGUCCCUUGGCAGCGGUACUGUUGCA [#10 K4 Theophylline B Same State] | 335 nM | 252 nM | 330 nM | 199 nM | 241 nM |
| GCGCGUCAUGUCAGCGGUGACACUGUCGAUACCAGCGCCGGAAGGCGCCCUUGGCAGCGACGUGCUGGAGUGAUGUUCCAGCGUC [#2 Exclusion - Theophylline A Attempt #21 (HarryS)] | 177 nM | 107 nM | 140 nM | 130 nM | 134 nM |
| UCCUGCAGUCUGCCACGAAAGUGGAUUGAUACCAGAGUCGAAAGACUCCCUUGGCAGCGAGUGAUGUUCGAAGCAGGUAAAUAAA [MatMod 1 - Jieux - Exclusion - Theophylline A] | 160 nM | 204 nM | 178 nM | 221 nM | 130 nM |
| AACGUUUUGAGAAGGAGCGCGUUAAGCAGUGAUGUUGCUUUAUUUUAUCAAAUACAUAUAUCGCAGGUAGGUCGCUCAAUACGUA [JR_Nu_SSArginiB_Sub026] | 304 nM | 218 nM | 253 nM | 283 nM | 230 nM |
| CUGACUAAAUAGUCAGUGAUGUUGACUGGACGAGGACCGGUACGGCCGCCACUCGAGAGUGGUGUAAUAUAUGUCAUAUAGUCAA [Tryp A SS t3] | 517 nM | 258 nM | 436 nM | 423 nM | 233 nM |
| AUUUAAUUAACUGAUACCAGACUUUAAGUAAUUAUUAAAACUAGUGAUGUUAGUUUAUCUGUCCCUUGGCAGCAGUUUCUACUUA [JR_Nu_ExcTheophyB_Sub020] | 144 nM | 136 nM | 158 nM | 135 nM | 127 nM |
| CCGUAUGUCCACUAUUGAGUGAUGUUCAAGCGAGGACCGGUACGGCCGCCACUCGCGUUACCCACCACGUGUCGCCGCACUUACC [theeternabot_exclusion_KL_Trp_A_42] | 203 nM | 160 nM | 203 nM | 159 nM | 370 nM |
| AAGCAGUCACUCGAAGCCAUCGAAGAUGGGCGAGGACCGGUACGGCCGCCACUCGGAGUGAUGUUCCGAAGACUGCAAAAUAAAA | 512 nM | 669 nM | 498 nM | 508 nM | 567 nM |
| AAUAAUAUACAAAGGCGAACGAAUAGGGAAGGAGCGCGAUAUAACGCAGGUAGGUCGCCCAUAUUUUUAGUGAUGUUAGAGAAUA [E. Arginine A Tesla 1] | 938 nM | 762 nM | 766 nM | 920 nM | 757 nM |
| CUUGUACAUGCCGAGGUAGGUGCGGGUUAGCGAGGACCGGUACGGCCGCCACUCGCCAAGUGAUGUUUGGUCCUUUGGAUCGGCA | 1220 nM | 453 nM | 366 nM | 690 nM | 183 nM |
| GCGUGGCAGGCGGCCGCCACUCGGACGAGUCACAGUGAUGUUGUGGUUUGCCAGUCGUCUUCAUCGAGGACCGGGUUUGUUGCGC [Exclusion Tryptophan B GF 18] | 206 nM | 169 nM | 212 nM | 159 nM | 171 nM |
| UGGACAUGACUCGAUAAGAGUCAAUGGGAUACCAGUGACGAAAGUCACCCUUGGCAGCUCAACUGCCAGUGAUGUUGGUAGUCCA [Astros-Elo-mod#2] | 231 nM | 129 nM | 224 nM | 134 nM | 166 nM |
| CAAGCUCUCCAAGGAUAUGAUAUCGACCCGUCUUAGUGAUGUUAAGGCUGUAGAAAUUCACAUUGAUCAGAAGGUGGUACCCUCC [theeternabot_sameState_KL_FMN_B_8] | 317 nM | 194 nM | 256 nM | 351 nM | 239 nM |
| GAUUGUGAUGGAAACAUCGCAAUCUCUGAAGGAGCGCGUGAAAACGCAGGUAGGUCGCAGGACGACAAAGACAGUGAUGUUGUCA [Ex Arginine A K4 1] | 335 nM | 319 nM | 311 nM | 369 nM | 380 nM |
| CCAAUCUGUUACGAUACCAGUCAAAGAUAUUUUAUCAAUGCCCUCACCGAGUGAUGUUCGGACCCUUGGCAGCGUCUGGGAUAGG [ddfcmullin] | 165 nM | 142 nM | 186 nM | 165 nM | 149 nM |
| UUUGGUUUCUCGGCCGCCACUCGUUGGUUAUGGGCUUCAGGGAUAUAGUGAUGUUAUGUAUAGAAGAGGACCGGGAGAAGGUUUU [ExTryptoB.Du] | 215 nM | 368 nM | 330 nM | 434 nM | 239 nM |
| CACGAUGAAUUCUCUAGGAGUGAUGUUUUUCGAGGACCGGUACGGCCGCCACUCGGACGACGAGCGUGGUAGCGGCCUGAAGACU [,omullin] | 743 nM | 225 nM | 468 nM | 680 nM | 380 nM |
| AAAAUAAACCAGUGAUGUUGGUGUCCAGAUACCAGCGAUAAAAUUCGCCCUUGGCAGCUGUGGACGUACAAAAUAAGUACGUCCU [MatMod 3 - Jieux - Same State - Theophylline A] | 734 nM | 555 nM | 837 nM | 525 nM | 674 nM |
| GGAUAGGAUAGAGGAUAUGGCUUACGCAGAAAUAACUUGUUGUGUUUAUCCAUAGGGAGUGAUGUUCCAGAAGGCUGUCCUAUCG [MatMod 18 - Jieux - Exclusion - FMN B] | 732 nM | 204 nM | 266 nM | 240 nM | 183 nM |
